Results published in patent US20210371518A1 (University of Texas, published 2021).
Where “and” joins values, the source holds several entries; their conditions need not be identical. Equal values may be shown once.

Key:
[1] = target: T1, human LILRB4 extracellular domain (ECD) recombinant protein (human, UniProt Q8NHJ6 22-259); experiment: Octet BLI, antibody on protein A sensor, recombinant human LILRB4 in solution
T1 construct: extracellular domain; also called LILRB4 ECD; LILRB4-ECD
Description: FIG. 26 illustrates the kinetic binding measurements (sensor-grams) for exemplary LILRB4 antibodies determined using Octet. Antibody at 30 μg/mL was loaded to the proteins A sensor for 4 min. Following a short baseline in kinetics buffer, the loaded sensors were exposed to a series of recombinant human LILRB4 concentrations (0.1-200 nM) and background subtraction was used to correct for sensor drifting. All experiments were performed with shaking at 1,000 rpm. Background wavelength shifts were measured from reference sensors that were loaded only with antibody. ForteBio's data analysis software was used to fit the data to a 1:1 binding model to extract an association rate and dissociation rate. The KD was calculated by the ratio koff/kon using ForteBio's data analysis software 7.0.

[2] = target: T2, human LILRB4 D1 recombinant protein (human, UniProt Q8NHJ6 24-119, limits assumed); experiment: ELISA, LILRB4 D1 recombinant protein coated, anti-rabbit IgG F(ab)2-HRP
T2 construct: domain: D1 domain; also called LILRB4 D1 domain (D1); Ig domain-1
T2 sequence (Q8NHJ6 24-119 limits assumed): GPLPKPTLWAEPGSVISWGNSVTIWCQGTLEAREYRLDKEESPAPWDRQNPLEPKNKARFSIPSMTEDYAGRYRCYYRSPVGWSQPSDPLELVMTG
Description: FIGS. 23A-23B. FIG. 23A is a schematic of the LILRB4 extracellular domain (ECD). […] FIG. 23B illustrates the determination of exemplary LILRB4 mAbs binding to Ig domain-1 (D1 domain) of human LILRB4. X axis indicates the antibody concentrations and Y-axis is binding signals in OD (450 nm). LILRB4 D1 recombinant protein was coated on high absorption 96-well plates. Serial diluted (3-fold) LILRB4 mAb was added to the coated/blocked plates and detected using goat anti-rabbit IgG F(ab)₂-conjugated HRP as secondary antibody.

[3] = target: T1, human LILRB4 extracellular domain (ECD) …; experiment: ELISA, coated LILRB4 ECD
Description: FIG. 22 illustrates the determination of exemplary LILRB4 monoclonal antibody (mAbs) binding to human LILRB4 ECD using a concentration titration (0-10 μg/ml) by ELISA. X axis indicates the antibody concentrations and Y-axis is binding signals in OD (450 nm). LILRB4 ECD recombinant protein was coated on high absorption 96-well plates. Serial diluted (3-fold) LILRB4 mAb was added to the coated/blocked and detected using goat anti-rabbit IgG F(ab)₂-conjugated HRP as secondary antibody. The titration curves were fitted using 4-parameter fitting curve using the GraphPad software for EC50 estimation.

[4] = target: LILRA2 (human (not printed on the sheet), UniProt Q8N149); experiment: LILR reporter cells on coated antibody, GFP positive (%)
Chain of LILRA2 (Q8N149 24-449 limits assumed): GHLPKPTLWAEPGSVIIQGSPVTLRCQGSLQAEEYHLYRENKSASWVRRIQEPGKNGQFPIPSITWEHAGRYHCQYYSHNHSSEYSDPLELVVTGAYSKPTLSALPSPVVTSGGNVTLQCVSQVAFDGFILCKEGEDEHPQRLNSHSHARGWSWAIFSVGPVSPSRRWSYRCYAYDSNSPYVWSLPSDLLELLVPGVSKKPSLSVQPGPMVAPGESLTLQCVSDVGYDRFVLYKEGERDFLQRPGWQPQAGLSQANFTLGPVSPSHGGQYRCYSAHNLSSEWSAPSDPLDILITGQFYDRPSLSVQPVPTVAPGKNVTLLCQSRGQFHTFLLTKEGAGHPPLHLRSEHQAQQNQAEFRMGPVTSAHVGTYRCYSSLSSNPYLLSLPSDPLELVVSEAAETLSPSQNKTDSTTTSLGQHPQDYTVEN
Description: (§1) FIGS. 41A-41M illustrate specific binding of h193 antibodies to LILRB4 protein. FIGS. 41A-41L illustrate the specificity of h193 antibodies determined by LILR reporter assays, in which LILR reporter cells are added to the plates coated with h193 antibodies. The binding of h193 antibodies to the ECD of the LILR member on the surface of the reporter cells induced GFP signal. FIG. 41M illustrates the specificity of an exemplary h193 antibody determined by ELISA. LILRA and LILRB recombinant proteins were coated on high absorption 96-well plates. Serial diluted (5-fold) mAb h193 were added to the coated/blocked plates and detected using goat anti-human IgG F(ab)2 conjugated HRP as secondary antibody.

[5] = target: LILRA6 (human (not printed on the sheet), UniProt Q6PI73); experiment: as above
Chain of LILRA6 (Q6PI73 24-447 limits assumed): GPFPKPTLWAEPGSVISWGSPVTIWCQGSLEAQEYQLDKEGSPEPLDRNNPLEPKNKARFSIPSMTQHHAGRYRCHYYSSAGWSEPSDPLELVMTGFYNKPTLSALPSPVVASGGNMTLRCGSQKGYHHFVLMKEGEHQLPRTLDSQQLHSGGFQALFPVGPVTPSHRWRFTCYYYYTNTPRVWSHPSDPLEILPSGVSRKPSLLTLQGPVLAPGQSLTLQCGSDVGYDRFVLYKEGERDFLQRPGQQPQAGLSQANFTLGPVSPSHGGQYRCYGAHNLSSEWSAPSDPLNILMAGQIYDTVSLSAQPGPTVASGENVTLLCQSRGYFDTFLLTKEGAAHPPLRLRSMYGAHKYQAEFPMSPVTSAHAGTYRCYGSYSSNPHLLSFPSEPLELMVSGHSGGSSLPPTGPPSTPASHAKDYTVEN
Description: as §1

[6] = target: LILRB1 (human (not printed on the sheet), UniProt Q8NHL6); experiment: as above
Chain of LILRB1 (Q8NHL6 24-461 limits assumed): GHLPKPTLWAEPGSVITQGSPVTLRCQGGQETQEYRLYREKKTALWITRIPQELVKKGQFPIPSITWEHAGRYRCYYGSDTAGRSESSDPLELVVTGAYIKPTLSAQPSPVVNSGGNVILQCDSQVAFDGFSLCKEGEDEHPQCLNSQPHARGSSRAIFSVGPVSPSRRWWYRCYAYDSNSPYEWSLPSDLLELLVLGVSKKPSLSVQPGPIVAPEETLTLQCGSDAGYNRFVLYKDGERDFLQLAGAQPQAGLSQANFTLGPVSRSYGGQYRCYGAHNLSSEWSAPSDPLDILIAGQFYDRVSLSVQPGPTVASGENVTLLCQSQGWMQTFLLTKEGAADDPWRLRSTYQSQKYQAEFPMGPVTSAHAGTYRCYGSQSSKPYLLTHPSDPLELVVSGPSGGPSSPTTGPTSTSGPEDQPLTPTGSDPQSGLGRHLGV
Description: as §1

[7] = target: LILRB3 (human (not printed on the sheet), UniProt O75022); experiment: as above
Chain of LILRB3 (O75022 24-443 limits assumed): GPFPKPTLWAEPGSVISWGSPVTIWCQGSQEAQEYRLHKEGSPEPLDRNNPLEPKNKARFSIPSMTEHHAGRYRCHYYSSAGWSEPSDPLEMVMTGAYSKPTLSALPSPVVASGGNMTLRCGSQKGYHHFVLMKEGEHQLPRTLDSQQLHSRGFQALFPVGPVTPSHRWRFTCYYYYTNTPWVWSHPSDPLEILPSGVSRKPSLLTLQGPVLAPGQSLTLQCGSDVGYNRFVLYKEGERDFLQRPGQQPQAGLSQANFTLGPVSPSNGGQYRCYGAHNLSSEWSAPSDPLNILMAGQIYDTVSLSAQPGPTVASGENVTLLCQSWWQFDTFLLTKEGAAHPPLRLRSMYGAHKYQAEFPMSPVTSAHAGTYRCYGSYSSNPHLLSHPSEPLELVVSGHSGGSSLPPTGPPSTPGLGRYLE
Description: as §1

[8] = target: LILRB5 (human (not printed on the sheet), UniProt O75023); experiment: as above
Chain of LILRB5 (O75023 24-458 limits assumed): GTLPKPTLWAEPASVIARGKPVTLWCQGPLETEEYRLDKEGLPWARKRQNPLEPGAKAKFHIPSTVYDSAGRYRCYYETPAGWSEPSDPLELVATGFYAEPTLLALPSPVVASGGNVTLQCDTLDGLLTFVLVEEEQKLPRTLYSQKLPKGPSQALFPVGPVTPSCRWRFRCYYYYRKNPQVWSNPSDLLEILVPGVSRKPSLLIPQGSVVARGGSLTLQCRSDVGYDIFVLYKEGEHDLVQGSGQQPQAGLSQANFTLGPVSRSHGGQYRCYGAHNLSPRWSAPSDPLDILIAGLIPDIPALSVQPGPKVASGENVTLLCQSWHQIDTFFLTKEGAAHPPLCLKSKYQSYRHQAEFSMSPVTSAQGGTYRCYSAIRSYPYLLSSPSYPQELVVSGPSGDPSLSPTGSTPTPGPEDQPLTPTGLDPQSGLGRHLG
Description: as §1

[9] = target: LILRA4 (human (not printed on the sheet), UniProt P59901); experiment: as above
Chain of LILRA4 (P59901 24-446 limits assumed): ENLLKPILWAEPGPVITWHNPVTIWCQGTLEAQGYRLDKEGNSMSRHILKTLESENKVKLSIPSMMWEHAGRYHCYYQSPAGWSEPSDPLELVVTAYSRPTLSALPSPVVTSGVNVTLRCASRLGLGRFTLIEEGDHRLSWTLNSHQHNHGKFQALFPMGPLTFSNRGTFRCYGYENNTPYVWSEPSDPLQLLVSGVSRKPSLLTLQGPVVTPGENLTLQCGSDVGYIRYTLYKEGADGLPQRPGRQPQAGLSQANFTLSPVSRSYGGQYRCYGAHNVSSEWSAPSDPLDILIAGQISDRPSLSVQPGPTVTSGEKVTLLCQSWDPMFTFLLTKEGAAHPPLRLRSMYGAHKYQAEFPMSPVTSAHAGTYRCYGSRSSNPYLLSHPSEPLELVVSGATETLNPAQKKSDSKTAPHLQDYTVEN
Description: as §1

[10] = target: LILRB2 (human (not printed on the sheet), UniProt Q8N423); experiment: as above
Chain of LILRB2 (Q8N423 22-460 limits assumed): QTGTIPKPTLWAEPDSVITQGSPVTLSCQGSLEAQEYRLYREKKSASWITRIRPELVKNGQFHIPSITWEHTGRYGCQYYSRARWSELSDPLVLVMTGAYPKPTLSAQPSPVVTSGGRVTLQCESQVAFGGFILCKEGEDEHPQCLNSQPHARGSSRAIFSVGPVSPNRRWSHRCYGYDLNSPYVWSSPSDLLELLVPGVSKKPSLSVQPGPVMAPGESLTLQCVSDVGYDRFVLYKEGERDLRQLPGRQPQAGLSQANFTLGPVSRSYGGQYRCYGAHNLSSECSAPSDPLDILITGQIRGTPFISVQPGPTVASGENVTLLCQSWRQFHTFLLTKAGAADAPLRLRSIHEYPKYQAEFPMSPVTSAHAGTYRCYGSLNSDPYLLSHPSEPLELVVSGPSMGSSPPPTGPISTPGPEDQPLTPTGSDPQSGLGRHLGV
Description: as §1

[11] = target: LILRA5 (human (not printed on the sheet), UniProt A6NI73); experiment: as above
Chain of LILRA5 (A6NI73 42-268 limits assumed): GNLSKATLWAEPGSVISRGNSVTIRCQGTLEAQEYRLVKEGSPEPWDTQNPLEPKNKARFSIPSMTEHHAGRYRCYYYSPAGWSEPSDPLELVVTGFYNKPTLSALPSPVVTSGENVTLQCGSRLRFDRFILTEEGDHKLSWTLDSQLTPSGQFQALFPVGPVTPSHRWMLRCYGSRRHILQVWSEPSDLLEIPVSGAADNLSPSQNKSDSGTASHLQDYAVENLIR
Description: as §1

[12] = target: LILRA1 (human (not printed on the sheet), UniProt O75019); experiment: as above
Chain of LILRA1 (O75019 17-461 limits assumed): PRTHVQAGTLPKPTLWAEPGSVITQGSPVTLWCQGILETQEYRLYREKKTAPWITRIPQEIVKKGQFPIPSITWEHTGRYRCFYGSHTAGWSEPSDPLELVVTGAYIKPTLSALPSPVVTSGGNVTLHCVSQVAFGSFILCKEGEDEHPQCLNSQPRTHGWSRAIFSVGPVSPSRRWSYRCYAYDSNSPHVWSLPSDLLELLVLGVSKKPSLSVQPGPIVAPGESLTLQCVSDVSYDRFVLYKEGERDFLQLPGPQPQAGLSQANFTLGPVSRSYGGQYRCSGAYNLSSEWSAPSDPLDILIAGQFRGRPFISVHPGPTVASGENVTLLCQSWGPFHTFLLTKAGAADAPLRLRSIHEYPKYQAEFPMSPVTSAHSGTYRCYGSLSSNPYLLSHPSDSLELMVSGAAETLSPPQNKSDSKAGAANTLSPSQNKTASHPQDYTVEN
Description: as §1

[13] = target: LILRA3 (human (not printed on the sheet), UniProt Q8N6C8); experiment: as above
Chain of LILRA3 (Q8N6C8 24-439 limits assumed): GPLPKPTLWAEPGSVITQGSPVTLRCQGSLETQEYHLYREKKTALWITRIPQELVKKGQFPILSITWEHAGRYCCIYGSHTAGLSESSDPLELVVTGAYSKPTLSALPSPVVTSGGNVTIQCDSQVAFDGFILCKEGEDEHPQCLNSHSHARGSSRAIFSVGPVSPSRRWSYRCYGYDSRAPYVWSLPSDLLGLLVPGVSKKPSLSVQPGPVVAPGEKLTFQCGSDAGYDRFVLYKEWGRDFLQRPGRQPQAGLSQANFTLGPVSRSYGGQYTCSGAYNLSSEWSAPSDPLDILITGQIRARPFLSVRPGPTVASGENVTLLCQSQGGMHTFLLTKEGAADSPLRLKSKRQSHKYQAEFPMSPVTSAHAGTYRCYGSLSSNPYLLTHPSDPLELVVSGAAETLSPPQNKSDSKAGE
Description: as §1

[14] = target: T1, human LILRB4 extracellular domain (ECD) …; experiment: ELISA
[15] = target: T1, human LILRB4 extracellular domain (ECD) …; experiment: Octet

| Binder | Kd [1] [nM] | EC50 [3] [nM] | binding result [4] | binding result [5] | binding result [6] | binding result [7] | binding result [8] | binding result [9] | binding result [10] | binding result [11] | binding result [12] | binding result [13] | EC50 [14] | Kd [15] [nM] | koff [15] [s⁻¹] | kon [15] [M⁻¹ s⁻¹] | other results |
| --- | --- | --- | --- | --- | --- | --- | --- | --- | --- | --- | --- | --- | --- | --- | --- | --- | --- |
| B4-87 (antibody, V domains shown, Rabbit monoclonal antibody) VH: QSVKESGGDLVKPGASLTLTCTASGFSFISTYWICWVRQAPGKGLELIACIYTGGSGSTYYASWAKGRFTISKTSSTTVTLQLNSLTAADTATYFCARALYVDYVDYDYIDLWGPGTLVTVSS VL: ELDLTQTPASVEAAVGGTVTIKCQASENIGSRLAWYQQKPGQPPKLLIYAASNLASGVSSRFKGSRSGTQFTLTISDLECADAAIYYCQCSYYGSTYVFGFGGGTEVEIK | 0.238 | 2.54 |  |  |  |  |  |  |  |  |  |  |  |  |  |  | EC50 (read off the curve) [2]: ~0.2 µg/mL |
| B4-86 (antibody, V domains shown, Rabbit monoclonal antibody) VH: EQSVESGGDLVKPEGSLTLTCTVSGFSFSSSYWICWVRQAPGKGLEWIGCIGTGSGSTYYGSWAKGRFTISKTSSTTVTLQMTSLTAADTATYFCVRGAGYSSYRLWGPGTLVTISS VL: ELDMTQTPASVSEPVGGTVTIKCQASESVSNWLAWYQQKPGQRPKLLIYGASTLESGVPSRFSGSGSGTEFTLTISNLECADAATYYCQQGYDWDNIDNAFGGGTEVVVK | 0.344 | 1.02 |  |  |  |  |  |  |  |  |  |  |  |  |  |  |  |
| h193 antibody No. 35 (h193-H7 / h193-K1) (antibody, V domains shown) VH: EVQLVESGGGLVQPGGSLRLSCAASGFSLSSSYWISWVRQAPGKGLEWIGSIDSGSVGITYYATWVKGRFTISRDNSKNTLYLQMNSLRAEDTAVYYCARHGDNWALDLWGQGTLVTVSS VL: DIQMTQSPSTLSASVGDRVTITCQASQSINSWLAWYQQKPGKAPKLLIYKASTLASGVPSRFSGSGSGTEFTLTISSLQPDDFATYYCQHGYIRGDLDNVFGGGTKVEIK |  |  | no binding | no binding | no binding | no binding | no binding | no binding | no binding | no binding | no binding | no binding | 0.162 µg/mL and 1.08 nM | 1.05 | 0.000148 | 141000 |  |
| h193 antibody No. 36 (h193-H7 / h193-K2) (antibody, V domains shown) VH: EVQLVESGGGLVQPGGSLRLSCAASGFSLSSSYWISWVRQAPGKGLEWIGSIDSGSVGITYYATWVKGRFTISRDNSKNTLYLQMNSLRAEDTAVYYCARHGDNWALDLWGQGTLVTVSS VL: DLVMTQSPSTLSASVGDRVTITCQASQSINSWLAWYQQKPGKPPKLLIYKASTLASGVSSRFSGSGSGTEFTLTISSLQPDDVATYYCQHGYIRGDLDNVFGGGTKVEIK |  |  | no binding | no binding | no binding | no binding | no binding | no binding | no binding | no binding | no binding | no binding | 0.145 µg/mL and 0.96 nM | 1.01 | 0.000144 | 143000 |  |
| h193 antibody No. 37 (h193-H7 / h193-K3) (antibody, V domains shown) VH: EVQLVESGGGLVQPGGSLRLSCAASGFSLSSSYWISWVRQAPGKGLEWIGSIDSGSVGITYYATWVKGRFTISRDNSKNTLYLQMNSLRAEDTAVYYCARHGDNWALDLWGQGTLVTVSS VL: DIQMTQSPSTLSASVGDRVTITCRASQSINSWLAWYQQKPGKAPKLLIYKASTLASGVPSRFSGSGSGTEFTLTISSLQPDDFATYYCQHGYIRGDLDNVFGGGTKVEIK |  |  | no binding | no binding | no binding | no binding | no binding | no binding | no binding | no binding | no binding | no binding | 0.163 µg/mL and 1.08 nM | 0.984 | 0.00014 | 143000 |  |
| B4-116-1 (antibody, V domains shown, Rabbit monoclonal antibody) VH: EQSVEESGGDLVKPGASLTLTCAASGFSFSSTYCMCWVRQAPGKGLEWIACIHGVSTNNRWYASWPKGRFTISKTSSTTVTLQMTSLTAADTATYFCARSDTDYEWGLSLWGPGTLVTISS VL: ELDLTQTPASVSEPVGGTVTIKCQASESIGSRLAWYQQKPGQRPKLLIYKASTLASGVPSRFSGSGSGTEFTLTVSDLECADVAAYYCQCAGQSSTWAFGGGTEVEIK | 0.82 | 2.58 |  |  |  |  |  |  |  |  |  |  |  |  |  |  |  |
| B4-116-2 (antibody, V domains shown, Rabbit monoclonal antibody) VH: EQSVEESGGDLVKPGASLTLTCAASGFSFSSTYCMCWVRQAPGKGLEWIACIHGVSTNNRWYASWPKGRFTISKTSSTTVTLQMTSLTAADTATYFCARSDTDYEWGLSLWGPGTLVTISS VL: ELVMTQTPASVEAVVGGTVTIKCQASESIGSRLAWYQQKPGQRPKLLIYKASTLASGVPSRFSGSGSGTEFTLTVSDLECADVAAYYCQCAGQSSTWAFGGGTEVVVK | 0.495 | 1.7 |  |  |  |  |  |  |  |  |  |  |  |  |  |  |  |

Second part, led by results:

| Kd [1] [nM] | EC50 [3] [nM] | binding result [4] | binding result [5] | binding result [6] | binding result [7] | binding result [8] | binding result [9] | binding result [10] | binding result [11] | binding result [12] | binding result [13] | EC50 [14] | Kd [15] [nM] | koff [15] [s⁻¹] | kon [15] [M⁻¹ s⁻¹] | Binder | other results |
| --- | --- | --- | --- | --- | --- | --- | --- | --- | --- | --- | --- | --- | --- | --- | --- | --- | --- |
| 3.73 | 0.29 |  |  |  |  |  |  |  |  |  |  |  |  |  |  | B4-72-2 (antibody, V domains shown, Rabbit monoclonal antibody) VH: EQSVEESGGRLVTPGTPLTLTCTASGFSLSSYYMSWVRQAPGRGLEYIGVINTGGSAVYATWTKGRFTISRTSTTVDLKMTGLTTEDTATYFCARGWSRGDLWGQGTLVTISS VL: ELDMTQTPSPVSAAVGGTVTIKCQSSQNVYDDDTLSWYQQKPGQPPKLLIYDASKLASGVPDRFSGSGSGTQFTLTISGVQCDDAATYYCLGVFHDGINNAFGGGTEVEIK |  |
| 0.0233 | 1.01 |  |  |  |  |  |  |  |  |  |  |  |  |  |  | B4-49 (antibody, V domains shown, Rabbit monoclonal antibody) VH: QSLEESGGDLVKPGASLTLTCTASGFDFSSSGWICWVRQAPGKGLELIACIYSGRSGSTYYASWAKGRVTISKTSSTTVTLQMTSLTAADTATYFCARALYVDYVDYDYIDLWGPGTLVTVSS VL: ELDLTQTPASVEAAVGGTVTIKCQASQSTGIRLAWYQQKPGQPPKLLMYATSNLASGVSSRFKGSGSGTEFTLTISDLECADAATYYCQYSYYGSSYVFDFGGGTEVEIK |  |
|  | 0.99 |  |  |  |  |  |  |  |  |  |  |  |  |  |  | B4-15-1 (antibody, V domains shown, Rabbit monoclonal antibody against human LILRB4 ECD) VH: SGGLEESGGRLVTPGTPLTLTCTASGFTINSAHMSWVRQAPGKGLEWIGFSTTGGPSYYANWAKGRFTISRTSTTVDLEITSPTIEDTATYFCARDGPGNNIDMDLWGQGTLVTITS VL: ELDLTQTPASVSEPVGGTVTIKCQASQNRGGSIAWYQQKPGQPPKLLIYSASTLASGVPSRFSGSGYGTEFTLTISGVQCADAGTYYCQSTIYSISDIGAFGGGTEVVVK |  |
